Reference: US20210061859A1, “NTCP Inhibitor” (The University of Tokyo, priority 2018, published 2021)
Where a SMILES comes first, the peptide text is derived from it. Bridges are numbered along the chain shown (N, C = ends). [ ]: non-standard residue; d: D form. NMeS = CN[C@@H](CO)C(=O)O; Sar = CNCC(=O)O

T1: human NTCP (Homo sapiens, UniProt Q14973)
T1 construct: made in house; host or cells: wheat germ cell-free protein synthesis system
T1 sequence (Q14973 1-349): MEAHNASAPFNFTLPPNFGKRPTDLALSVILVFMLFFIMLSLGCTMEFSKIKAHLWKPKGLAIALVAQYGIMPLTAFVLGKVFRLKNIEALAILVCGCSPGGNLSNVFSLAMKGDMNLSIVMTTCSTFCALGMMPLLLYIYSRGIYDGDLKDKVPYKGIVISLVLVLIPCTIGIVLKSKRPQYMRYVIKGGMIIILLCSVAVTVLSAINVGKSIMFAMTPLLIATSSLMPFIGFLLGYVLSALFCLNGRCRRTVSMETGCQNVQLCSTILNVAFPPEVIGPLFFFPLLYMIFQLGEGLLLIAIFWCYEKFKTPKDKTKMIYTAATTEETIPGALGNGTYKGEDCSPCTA

T2: His-tagged recombinant NTCP protein (human sodium taurocholate cotransporting polypeptide) (human), Q14973
T2 chain: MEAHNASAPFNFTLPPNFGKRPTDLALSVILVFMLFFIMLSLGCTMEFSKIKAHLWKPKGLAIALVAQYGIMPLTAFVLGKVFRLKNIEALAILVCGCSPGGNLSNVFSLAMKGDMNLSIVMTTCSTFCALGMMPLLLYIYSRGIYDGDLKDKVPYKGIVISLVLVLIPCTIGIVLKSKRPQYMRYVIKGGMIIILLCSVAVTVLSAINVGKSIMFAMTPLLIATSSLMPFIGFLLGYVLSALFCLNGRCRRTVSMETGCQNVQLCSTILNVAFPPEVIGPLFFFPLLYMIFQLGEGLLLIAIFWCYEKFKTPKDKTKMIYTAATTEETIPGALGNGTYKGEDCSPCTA


Each molecule was assayed against T1, human NTCP (assay: Surface plasmon resonance binding to immobilized recombinant NTCP). Conditions: Kd, single-cycle kinetics, 1:1 binding model, NTCP immobilized on NTA-Ni2+.
Description: (§1) FIG. 7 is a diagram showing the NTCP association constant of a peptide identified by first RaPID screening. A single-cycle reaction kinetics experiment was conducted using NTCP immobilized on surface (NTA-Ni^2+) involving varying concentrations of a cyclic peptide analyte. In each case, as shown in the drawing, the peptide was tested with 4-fold serial dilutions starting from the highest concentration of 200 or 1000 nM. A dissociation constant (KD) was determined using a 1:1 binding model.
as §1, with “9” for “7”, “focused library” for “first”, “association constant” for “reaction kinetics”
The association constant of each peptide for human NTCP was measured using a Biacore T200 apparatus (GE Healthcare Japan Corp.). The running buffer solution used was HBS-P+ (10 mM HEPES, 150 mM NaCl, and 0.05 vol % surfactant P20, pH 7.4) containing 0.1 vol % DMSO and 1 mM β-dodecyl-maltoside. 100 nM recombinant NTCP was immobilized on a NTA chip treated with Ni^2+ according to the manufacturer's instructions (baseline response: 1000 to 3000 refraction units). Peptides were injected as analytes at a flow rate of 60 μL/min, and association constants were modelled using a 1:1 binding model.
Work on `CC[C@H](C)[C@@H]1NC(=O)[C@H](Cc2c[nH]c3ccccc23)NC(=O)[C@H]([C@@H](C)CC)NC(=O)[C@H](Cc2ccccc2)NC(=O)[C@H](CO)NC(=O)[C@H](CC(N)=O)NC(=O)[C@H](CCC(N)=O)NC(=O)[C@H](Cc2c[nH]c3ccccc23)NC(=O)[C@H]([C@@H](C)O)NC(=O)[C@H](Cc2c[nH]c3ccccc23)NC(=O)[C@H]([C@@H](C)O)NC(=O)[C@H](Cc2ccc(O)cc2)NC(=O)CSC[C@@H](C(=O)N[C@H](C(N)=O)[C@@H](C)O)NC(=O)[C@H](Cc2ccc(O)cc2)NC1=O` [WL5] ({CH2CO}-YTWTWQNSFIWIYCT-NH2; thioether N-14) yielded a Kd of 10 nM.
`CC[C@H](C)[C@@H]1NC(=O)[C@H](Cc2ccc(O)cc2)NC(=O)[C@H](CC(C)C)NC(=O)[C@H](C)NC(=O)[C@H]([C@@H](C)O)NC(=O)[C@H](CC(N)=O)NC(=O)[C@H](Cc2c[nH]c3ccccc23)NC(=O)[C@H](CCC(=O)O)NC(=O)[C@@H]2CCCN2C(=O)[C@H](Cc2ccc(O)cc2)NC(=O)[C@H](Cc2c[nH]c3ccccc23)NC(=O)[C@H](Cc2ccc(O)cc2)NC(=O)[C@H](Cc2c[nH]cn2)NC(=O)[C@@H](Cc2ccc(O)cc2)NC(=O)CSC[C@@H](C(=O)NCC(N)=O)NC(=O)[C@@H]2CCCN2C(=O)[C@H](Cc2c[nH]c3ccccc23)NC1=O` [D3] ({CH2CO}-[dY]HYWYPEWNTALYIWPCG-NH2; thioether N-17) showed a Kd of 50 nM.
Work on `CC(C)C[C@@H]1NC(=O)[C@H](Cc2ccc(O)cc2)NC(=O)CSC[C@@H](C(=O)NCC(N)=O)NC(=O)[C@H](CC(C)C)NC(=O)[C@H](CO)NC(=O)[C@H]([C@@H](C)O)NC(=O)[C@H](C(C)C)NC(=O)[C@H]([C@@H](C)O)NC(=O)[C@H](Cc2c[nH]c3ccccc23)NC(=O)[C@H](CC(N)=O)NC(=O)[C@H](CO)NC(=O)[C@H](Cc2c[nH]cn2)NC(=O)[C@H](Cc2c[nH]c3ccccc23)NC(=O)[C@H]([C@@H](C)O)NC(=O)[C@H](Cc2c[nH]c3ccccc23)NC(=O)[C@H]([C@@H](C)O)NC(=O)[C@H](Cc2ccc(O)cc2)NC1=O` [L1] ({CH2CO}-YLYTWTWHSNWTVTSLCG-NH2; thioether N-17) yielded a Kd of 21 nM.
In the case of `CC[C@H](C)[C@@H]1NC(=O)[C@H](Cc2c[nH]cn2)NC(=O)[C@H]([C@@H](C)CC)NC(=O)[C@H](CO)N(C)C(=O)[C@@H]2CCCN2C(=O)[C@H](Cc2ccc(O)cc2)NC(=O)[C@H](Cc2ccc(O)cc2)NC(=O)[C@H]([C@@H](C)CC)NC(=O)[C@H](Cc2ccc(O)cc2)NC(=O)[C@H](CC(N)=O)NC(=O)[C@@H](Cc2ccc(O)cc2)NC(=O)CSC[C@@H](C(=O)N[C@H](C(N)=O)[C@@H](C)O)NC(=O)[C@H](CC(C)C)NC(=O)[C@H](Cc2ccc(O)cc2)NC(=O)[C@H](Cc2ccccc2)NC1=O` [PD1] ({CH2CO}-[dY]NYIYYP[NMeS]IHIFYLCT-NH2; thioether N-15), the Kd is reported as 149 nM.
For `CC[C@H](C)[C@@H]1NC(=O)[C@H](Cc2c[nH]c3ccccc23)NC(=O)[C@H](CC(C)C)NC(=O)[C@H](Cc2ccc(O)cc2)NC(=O)CSC[C@@H](C(=O)NCC(N)=O)NC(=O)CNC(=O)[C@H](CC(C)C)NC(=O)[C@H](CC(=O)O)NC(=O)[C@H](Cc2ccccc2)NC(=O)[C@H]([C@@H](C)O)NC(=O)[C@H](Cc2ccc(O)cc2)NC(=O)[C@H](Cc2c[nH]c3ccccc23)NC(=O)[C@H](CC(N)=O)NC(=O)[C@H](CCC(N)=O)NC(=O)[C@H](Cc2c[nH]cn2)NC(=O)[C@H](Cc2ccccc2)NC1=O` [L3] ({CH2CO}-YLWIFHQNWYTFDLGCG-NH2; thioether N-16), the Kd was 13 nM.
Work on `CC(C)C[C@@H]1NC(=O)[C@H](Cc2ccc(O)cc2)NC(=O)[C@H](C)NC(=O)[C@H](CO)N(C)C(=O)[C@H](Cc2c[nH]cn2)NC(=O)[C@H](Cc2c[nH]c3ccccc23)NC(=O)[C@H]([C@@H](C)O)NC(=O)[C@H](Cc2c[nH]c3ccccc23)NC(=O)[C@H]([C@@H](C)O)NC(=O)[C@H](Cc2ccc(O)cc2)NC(=O)CSC[C@@H](C(=O)N[C@H](C(N)=O)[C@@H](C)O)NC(=O)[C@H](Cc2ccccc2)NC(=O)[C@H](C(C)C)NC(=O)[C@H](Cc2ccc(O)cc2)NC1=O` [WL3] ({CH2CO}-YTWTWH[NMeS]AYLYVFCT-NH2; thioether N-14) yielded a Kd of 57 nM.
`CC(C)C[C@@H]1NC(=O)[C@H](Cc2ccc(O)cc2)NC(=O)CSC[C@@H](C(=O)NCC(N)=O)NC(=O)[C@H](C(C)C)NC(=O)[C@H](CC(N)=O)NC(=O)[C@H](Cc2ccc(O)cc2)NC(=O)[C@H](C)NC(=O)[C@H](Cc2ccc(O)cc2)NC(=O)[C@H](CO)NC(=O)[C@H]([C@@H](C)O)NC(=O)[C@H](CC(N)=O)NC(=O)[C@@H]2CCCN2C(=O)[C@H](Cc2c[nH]c3ccccc23)NC(=O)[C@H]([C@@H](C)O)NC(=O)[C@H](Cc2c[nH]c3ccccc23)NC(=O)[C@H](CC(C)C)NC(=O)[C@H](Cc2ccc(O)cc2)NC1=O` [L4] ({CH2CO}-YLYLWTWPNTSYAYNVCG-NH2; thioether N-17) was tested, and the Kd was 30 nM.
`CC[C@H](C)[C@@H]1NC(=O)[C@H](Cc2c[nH]c3ccccc23)NC(=O)[C@H]([C@@H](C)O)NC(=O)[C@@H](Cc2ccc(O)cc2)NC(=O)CSC[C@@H](C(=O)N[C@H](C(N)=O)[C@@H](C)O)NC(=O)[C@@H]2CCCN2C(=O)[C@H](Cc2ccccc2)NC(=O)[C@H](Cc2ccc(O)cc2)NC(=O)[C@H](C(C)C)NC(=O)[C@H](C(C)C)NC(=O)[C@H](Cc2ccc(O)cc2)NC(=O)[C@H](CC(C)C)NC(=O)CN(C)C(=O)CN(C)C(=O)[C@H](Cc2c[nH]c3ccccc23)NC1=O` [WD2] ({CH2CO}-[dY]TWIW[Sar][Sar]LYVVYFPCT-NH2; thioether N-15) was tested, and the Kd was 14 nM.
Molecule `CC[C@H](C)[C@@H]1NC(=O)[C@H](Cc2ccc(O)cc2)NC(=O)[C@H](Cc2ccc(O)cc2)NC(=O)[C@H](Cc2c[nH]cn2)NC(=O)[C@H](Cc2c[nH]cn2)NC(=O)[C@H]([C@@H](C)O)NC(=O)[C@H](CC(N)=O)NC(=O)[C@H](Cc2c[nH]c3ccccc23)NC(=O)[C@H]([C@@H](C)O)NC(=O)[C@H](Cc2ccc(O)cc2)NC(=O)CSC[C@@H](C(=O)NCC(N)=O)NC(=O)[C@H](CC(N)=O)NC(=O)[C@H](CC(C)C)NC(=O)[C@H](Cc2c[nH]c3ccccc23)NC1=O` [L5] ({CH2CO}-YTWNTHHYYIWLNCG-NH2; thioether N-14) has a Kd of 4 nM.

Target: T2, His-tagged recombinant NTCP protein …
Assay: SPR (Biacore T200), single-cycle kinetics, His-NTCP on Ni2+-NTA chip, peptide as analyte, 1:1 model
Conditions: not given
For YHYWYPEWNTALYIWPCG (modifications not checked) [NTCP-D3], the Kd was 50 nM.
YTWTWQNSFIWIYCT (modifications not checked) [WL5] gave a Kd of 10 nM.
YTWTWHSAYLYVFCT (modifications not checked) [WL3] showed a Kd of 57 nM.
In the case of YWWAINPHIHVFTWPCG (modifications not checked) [NTCP-D2], the Kd is reported as 14 nM.
With YTWNTHHYYIWLNCG (modifications not checked) [NTCP-L5] the Kd was 4 nM.
Work on YTWIWGGLYVVYFPCT (modifications not checked) [WD2] yielded a Kd of 14 nM.
For YILVYPELHLFLLYSCG (modifications not checked) [NTCP-D4], the Kd was 2270 nM.
In the case of YVWLLWAERSWFLDLGCG (modifications not checked) [NTCP-L2], the Kd is reported as 374 nM.
YNYIYYPSIHIFYLCT (modifications not checked) [PD1] gave a Kd of 149 nM.
In the case of YTWTWNSAFLYVYCT (modifications not checked) [WL6], the Kd is reported as 36 nM.
With YLWIFHQNWYTFDLGCG (modifications not checked) [NTCP-L3] the Kd was 13 nM.
In the case of YLYLWTWPNTSYAYNVCG (modifications not checked) [NTCP-L4], the Kd is reported as 30 nM.
YTYKYSGIWIWIWCT (modifications not checked) [WL1] gave a Kd of 360 nM.
YALIWTWSQYYQYYSCT (modifications not checked) [WD3] showed a Kd of 15 nM.
With YLYTWTWHSNWTVTSLCG (modifications not checked) [NTCP-L1] the Kd was 21 nM.
YTFTYAQIWIWYYGCT (modifications not checked) [WD4] gave a Kd of 11 nM.
